Source: patent US20240254205A1 (UNIVERSITY OF ROCHESTER, published 2024)
Like-named read-outs stand apart in the source and are kept apart here.

Columns and labels:
[1] = target: T1, recombinant IBV NA protein B/Hong Kong/330/2001 (Victoria lineage) (influenza B virus B/Hong Kong/330/2001)
[2] = target: T1, recombinant IBV NA protein B/Hong …; remark: listed apart in the source
[3] = target: T1, recombinant IBV NA protein B/Hong …; assay: avidity ELISA with urea, hMAb at 1 µg/ml
[4] = target: T2, NA of B/Lee/1940 on infected MDCK cells (influenza B virus B/Lee/1940, UniProt P03474 1-466); assay: immunofluorescence on infected MDCK cells, hMAb at 1 µg/ml
T2 construct: whole, on cells

[5] = target: T1, recombinant IBV NA protein B/Hong …; assay: surface plasmon resonance, antibody on the chip, NA flowed over
[6] = target: T2, NA of B/Lee/1940 on infected MDCK cells; assay: immunofluorescence (IFA) on infected MDCK cells

Binder	Kd [1] [nM]	koff [1] [s⁻¹]	kon [1] [M⁻¹ s⁻¹]	EC50 (read off the curve) [2] [µg/mL]	binding activity maintained in 8 M urea [3] [%]	binding result [4]	Kd [5] [nM]	binding result [6]
KPF2/1092D4 (antibody, V domains shown) VH: EVQLLESGGQLVQPGGSLRLSCAVSGFTFSRYAMYWVRQAPGKGLEWVSIISGDGGVTFYADSVKGRFTISRDNSKNTLFLQMNSLRADDTAVYYCAKDNQDLDLWSGSYKGTFDDWGQGTLVTVSS VL: NFMLTQPHSVSGSPGKTVSISCTRSSGIIASNHVQWYQQRPGSAPTTVIFEDNQRPSGVPDRFSGSIDSSSNSASLTISGLKTEDEADYYCQSYDSSRYWVFGGGTKLTVL	0.185	4.86e-05	264000	~0.05	> 75	binds	0.1	–
1122C7 (antibody, V domains shown) VH: EVQLLESGGQLVQPGGSLRLSCAVSGFTFSSYAMYWVRQSPGKGLEWVSIISGDGGVTFYADSVKGRFTISRDNSKNTLYLQMNSLRAEDTAVYYCAKDKQDLDLWSGSYKGTFDEWGQGTLVTVSS VL: NFMLTQPHSVSGSPGKTVSISCTRSSGIIASNYVQWYQQRPGSAPTTVIFEDNQRPSGVPDRFSGSIDSSSNSASLTISGLKTEDEADYYCQSYDSSRYWVFGGGTKLTVL	–	–	–	–	> 75	binds	–	–
1092E10 (antibody, V domains shown, also called 1092E01) VH: EVQLVESGGGSVKPGGSLRLSCAASGFTFTNSWMSWVRQAPGKGLEWVGRIKSKSDGGTTDYAAPVKGRFSISRDDSKSTLFLQMNSLKTEDTAVYYCSAAPFTESNGYKSWDYLYGMDVWGQGTTVTVSS VL: SYELTQPPSVSVSPGQTATITCSGDKLGDKFASWYQQQPGQSPVLVIYQHTKRPSGIPERFSGSISGSTATLTISGTQAVDEADYYCQAWDSNSYVFGAGTKVTVL	–	–	–	~0.05	> 75	binds	–	–
1122C6 (antibody, V domains shown) VH: QVQLQESGPGLVKPSETLSLTCTVSGGSISSYYWSWIRQPPGKAVEWIGYIFDGGSTDYNPSLKSRVAMSVDASENQFSLKLASVTAADTAVYYCARYRVSGNYYDTPWFDPWGQGLLVTVSS VL: SYELTQPPSLSASPGQTARITCSGDALPKQDVYWYQQKPGQAPLLVIYKDTERPSGIPERFSGSRSGTTVTLIISGVQAEDEADYYCQSAASSYGYVVFGGGTKLTVL	–	–	–	–	–	–	–	no binding (tested: 1 µg/ml)
1086C12 (antibody, V domains shown) VH: VQLVESGGGVVQPGRSLRLSCVASGFSLSTYGMLWVRQAPGKGLVWVALISYEEGSNKKYADSVKGRFTISRDNSRNTLYLQMSSLTSDDTGVYYCARDAGCDSVGYYPGRLWGQGTLVTVSS VL: QSVLTQPPSASGTPGQTVTISCSGTSSNIGSNFVYWYQQLPGTAPKLLIFRNNQRPSGVPDRFSGSKSGTSASLAVSGLRSEDEAEYYCAAWDDSLSGHLVFGGGTKLTVL	–	–	–	~0.05	> 75	binds	–	–
